From patent US20250154272A1 (Astellas, published 2025)
Numbering of substitutions follows the chain as printed. Numbers in names are those of the source. Read-outs that look alike come from different tables or passages of the source. Blank lines part the entries; values can stand above or below the binder they belong to.

Key:
[1] = molecular target: T1, human CD137-human Fc fusion protein (human, UniProt Q07011 24-186); assay: ELISA of the purified antibody on coated plates
T1 construct: not shown: human IgG1 Fc of the pFUSE-hIgG1-Fc1 vector (InvivoGen, pfuse-hg1fc1)

[2] = molecular target: T2, monkey CD137-human Fc fusion protein (monkey; human, UniProt Q07011 24-186); assay: ELISA of the purified antibody on coated plates
T2 construct: not shown: human IgG1 Fc of the pFUSE-hIgG1-Fc1 vector (InvivoGen, pfuse-hg1fc1)
T2 chain: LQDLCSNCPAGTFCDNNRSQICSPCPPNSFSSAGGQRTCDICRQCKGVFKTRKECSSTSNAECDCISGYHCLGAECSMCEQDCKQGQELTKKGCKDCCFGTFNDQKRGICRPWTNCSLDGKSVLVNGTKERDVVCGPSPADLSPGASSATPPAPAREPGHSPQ

[3] = molecular target: T3, human CD137-His tag protein (R&D Systems, 9220-4B) (human, UniProt Q07011 24-186); assay: ELISA, human CD137-His tag protein immobilized on the plate, anti-human IgG Fc-HRP, A450-A570
T3 construct: Bought protein; not shown: His tag of the bought protein

[4] = molecular target: T4, human CLDN4 expressed on CHO-K1 cells (human, UniProt O14493 1-209); assay: flow cytometry on human CLDN4 expressing CHO-K1, apparent KD
T4 construct: whole, on cells; also called human CLDN4 expressing CHO-K1
T4 sequence (looked up): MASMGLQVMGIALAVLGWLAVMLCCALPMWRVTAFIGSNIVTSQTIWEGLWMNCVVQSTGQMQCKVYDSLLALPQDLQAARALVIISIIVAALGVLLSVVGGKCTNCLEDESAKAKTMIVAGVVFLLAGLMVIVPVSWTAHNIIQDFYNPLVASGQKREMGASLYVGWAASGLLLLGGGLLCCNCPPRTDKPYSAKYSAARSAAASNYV

[5] = molecular target: T3, human CD137-His tag protein (R&D …); assay: ELISA, human CD137-His tag protein immobilized on the plate, anti-human IgG Fc-HRP, A450-A570; remark: listed apart in the source
[6] = molecular target: T3, human CD137-His tag protein (R&D …); assay: as above; remark: listed apart in the source
[7] = molecular target: T3, human CD137-His tag protein (R&D …); assay: SPR, Biacore T200, antibody captured on Protein A chip, CD137 as analyte
[8] = molecular target: T5, monkey CD137-His tag-3×FLAG tag fusion protein (monkey); assay: as above
T5 construct: Residues 1-183 are the encoded extracellular region as stated; also called Monkey CD137-His-3 × FLAG
T5 chain: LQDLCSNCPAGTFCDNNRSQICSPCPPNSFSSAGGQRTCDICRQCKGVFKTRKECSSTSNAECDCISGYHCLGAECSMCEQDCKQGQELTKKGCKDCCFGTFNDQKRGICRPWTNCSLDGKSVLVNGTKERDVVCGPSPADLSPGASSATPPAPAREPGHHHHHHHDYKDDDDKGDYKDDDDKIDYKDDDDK

binding result [1]: binds
binding result [2]: binds
B1: anti-CD137 antibody A2-73 (antibody, V domains shown)
VH: QVQLQESGPGLVKPSETLSLTCTVSGGSISSYYWTWIRQPPGKGLELVGYIYYSGYTSYNPSLKSRVTISIDTSKNQFSLQLNSVTAADTAVYFCARDDYGGNGYYGVDVWGQGTTVTVSS
VL: not shown
notes: Purified from a hybridoma derived from an AlivaMab mouse

EC50 (read off the curve) [3]: ~10 ng/mL
B2: anti-CLDN4 (hKM3900)/anti-CD137 scFv bispecific antibody hKM3900_tA2-32LH_S (bispecific antibody)
heavy (part 1 of 2): EVQLVQSGAEVKKPGASVKISCKASGYTFTDYYMNWVRQAPGQGLEWMGDVVPNNGVPTYNQKFKGRVTITADKSTSTAYMELRSLRSEDTAVYYCARPHYYYAGRSGAMDYWGQGTLVTVSS
heavy (part 2 of 2): QSVLTQPPSASGTPGQRVTISCSGSSSNIGSNTVNWYQQFPGTAPKLLIYSNNQRPSGVPDRFSGSKSGTSASLAISGLQSEDEADYYCAGWDDSLNGPVFGGGTKLTVLGGGGGSGGGGSGGGGSGGGGSQVQLQESGPGLVKPSETLSLTCTVSGGSISGYYWSWIRQPPGKGLEWIGYIYYSGFTNYNPSLKSRVTISVDTSKNQFSLKLSSVTAADTAVYYCTRDHSHYYYMDVWGQGTTVTVSS
light: DIQLTQSPSSLSASVGDRVTITCTASSTVSSTYLHWYQQKPGKAPKLLIYSTSNLASGVPSRFSGSGSGTDYTLTISSLQPEDFATYYCHQYHRSPPTFGQGTKLEIKRTVAAPSVFIFPPSDEQLKSGTASVVCLLNNFYPREAKVQWKVDNALQSGNSQESVTEQDSKDSTYSLSSTLTLSKADYEKHKVYACEVTHQGLSSPVTKSFNRGEC
notes: scFv at the heavy chain C-terminus; not shown: human IgG1 heavy chain constant region; mutation positions by EU index; GS linker

EC50 (read off the curve) [3]: ~10 ng/mL
B3: anti-CLDN4 (hKM3900)/anti-CD137 scFv bispecific antibody hKM3900_tA2-32_S (bispecific antibody)
heavy (part 1 of 2): B2 heavy (part 1 of 2)
heavy (part 2 of 2): QVQLQESGPGLVKPSETLSLTCTVSGGSISGYYWSWIRQPPGKCLEWIGYIYYSGFTNYNPSLKSRVTISVDTSKNQFSLKLSSVTAADTAVYYCTRDHSHYYYMDVWGQGTTVTVSSGGGGSGGGGSGGGGSQSVLTQPPSASGTPGQRVTISCSGSSSNIGSNTVNWYQQFPGTAPKLLIYSNNQRPSGVPDRFSGSKSGTSASLAISGLQSEDEADYYCAGWDDSLNGPVFGCGTKLTVLG
light: B2 light
notes: as for B2

Kd [4]: 10.8 nM
binding result [5]: no binding (tested: 1000 ng/mL)
B4: humanized anti-CLDN4 (hKM3900) antibody (antibody, V domains shown)
VH: B2 heavy (part 1 of 2)
VL: DIQLTQSPSSLSASVGDRVTITCTASSTVSSTYLHWYQQKPGKAPKLLIYSTSNLASGVPSRFSGSGSGTDYTLTISSLQPEDFATYYCHQYHRSPPTFGQGTKLEIKR

EC50 (read off the curve) [6]: ~10 ng/mL
B5: anti-CLDN4 (hKM3900)/anti-CD137 scFv bispecific antibody hKM3900_tA2-48 (bispecific antibody)
heavy (part 1 of 2): B2 heavy (part 1 of 2)
heavy (part 2 of 2): QVQLQESGPGLVKPSETLSLTCTVSGGSISSYYWSWIRQPPGKCLEWIGYIYYSGYTNYNPSLKSRVNISVDTSQNQFSLKLNSLTAADTAVYYCARTHSYYYGMDVWGQGTTVTVSSGGGGSGGGGSGGGGSQSVLTQPPSASGTPGQRVTISCSGSSSNIGNNPVNWYQQFPGTAPKLLIYSNNQRPSGVPDRFSGSKSGTSASLAISGLQSEDEADYYCEAWDDSLNGPVFGCGTKLTVLG
light: B2 light
notes: as for B2

EC50 (read off the curve) [3]: ~10 ng/mL
B6: anti-CLDN4 (hKM3900)/anti-CD137 scFv bispecific antibody hKM3900_tA2-48_S (bispecific antibody)
heavy (part 1 of 2): B2 heavy (part 1 of 2)
heavy (part 2 of 2): B5 heavy (part 2 of 2)
light: B2 light
notes: as for B2

EC50 (read off the curve) [6]: ~10 ng/mL
B7: anti-CLDN4 (hKM3900)/anti-CD137 scFv bispecific antibody hKM3900_tA2-73 (bispecific antibody)
heavy (part 1 of 2): B2 heavy (part 1 of 2)
heavy (part 2 of 2): QVQLQESGPGLVKPSETLSLTCTVSGGSISSYYWTWIRQPPGKCLELVGYIYYSGYTSYNPSLKSRVTISIDTSKNQFSLQLNSVTAADTAVYFCARDDYGGNGYYGVDVWGQGTTVTVSSGGGGSGGGGSGGGGSQSVLTQPPSASGTPGQRVTISCSGSSSNIGNNPVNWYRQLPGTAPKLLIYSNNQRPSGVPDRFSGSKSGTSASLAISGLQSEDEADYYCAAWDDSLNGWVFGCGTKLTVLG
light: B2 light
notes: as for B2

Kd [4]: 10.8 nM
Kd [7]: 5.84 nM
koff [7]: 0.00219 s⁻¹
kon [7]: 374000 M⁻¹ s⁻¹
Kd [8]: 6.68 nM
koff [8]: 0.00192 s⁻¹
kon [8]: 288000 M⁻¹ s⁻¹
EC50 (read off the curve) [5]: ~8 ng/mL
EC50 (read off the curve) [6]: ~10 ng/mL
B8: anti-CLDN4 (hKM3900)/anti-CD137 scFv bispecific antibody hKM3900_tA2-32LH (bispecific antibody, human IgG1, kappa, L234A L235A)
heavy: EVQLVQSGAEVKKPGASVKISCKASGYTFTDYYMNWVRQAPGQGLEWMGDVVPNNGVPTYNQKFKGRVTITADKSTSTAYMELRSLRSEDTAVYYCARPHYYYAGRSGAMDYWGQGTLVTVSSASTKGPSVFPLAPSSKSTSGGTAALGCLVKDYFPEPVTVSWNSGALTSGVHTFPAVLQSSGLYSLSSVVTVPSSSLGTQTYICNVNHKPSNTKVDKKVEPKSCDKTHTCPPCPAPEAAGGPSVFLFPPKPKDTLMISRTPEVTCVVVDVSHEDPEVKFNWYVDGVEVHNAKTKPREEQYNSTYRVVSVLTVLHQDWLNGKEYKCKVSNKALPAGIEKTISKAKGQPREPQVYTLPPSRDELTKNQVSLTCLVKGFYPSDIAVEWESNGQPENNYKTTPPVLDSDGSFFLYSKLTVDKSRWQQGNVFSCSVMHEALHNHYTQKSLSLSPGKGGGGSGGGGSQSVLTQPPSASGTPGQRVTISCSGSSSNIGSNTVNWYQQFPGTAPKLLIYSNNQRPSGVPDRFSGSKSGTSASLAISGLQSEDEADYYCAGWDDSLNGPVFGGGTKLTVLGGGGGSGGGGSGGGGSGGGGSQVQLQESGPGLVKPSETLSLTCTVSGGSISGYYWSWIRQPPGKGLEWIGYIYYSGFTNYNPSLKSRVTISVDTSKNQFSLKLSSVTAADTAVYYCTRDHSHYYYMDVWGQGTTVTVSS
light: B2 light
notes: The heavy chain entry holds the hKM3900 heavy chain (L234A, L235A, P331G), the linker and the tA2-32LH scFv

EC50 (read off the curve) [3]: ~10 ng/mL
B9: anti-CLDN4 (hKM3900)/anti-CD137 scFv bispecific antibody hKM3900_tA2-73_S (bispecific antibody)
heavy (part 1 of 2): B2 heavy (part 1 of 2)
heavy (part 2 of 2): B7 heavy (part 2 of 2)
light: B2 light
notes: as for B2

EC50 (read off the curve) [6]: ~10 ng/mL
B10: anti-CLDN4 (hKM3900)/anti-CD137 scFv bispecific antibody hKM3900_tA2-32 (bispecific antibody)
heavy (part 1 of 2): B2 heavy (part 1 of 2)
heavy (part 2 of 2): B3 heavy (part 2 of 2)
light: B2 light
notes: as for B2

EC50 (read off the curve) [3]: ~10 ng/mL
B11: anti-CLDN4 (hKM3900)/anti-CD137 scFv bispecific antibody hKM3900_3-34-j6_S (bispecific antibody)
heavy (part 1 of 2): B2 heavy (part 1 of 2)
heavy (part 2 of 2): EVQLLESGGGLVQPGESLRLSCKAFGYTFTNHHINWVRQAPGKCLEWVGYINPYNDYTTFNDKFKDRFTLSVDKSKSTAYLQMNSLRAEDTAVYYCARTWGHWYFDLWGQGTLVTVSSGGGGSGGGGSGGGGSNIQMTQSPSSLSASVGDRVTITCRASQSVSSNLAWYQQKPGKAPKLLIYDSSTRATGVPSRFSGSGSGTDFTLTISSLQPEDFATYYCQQYNNWPPWTFGCGTKLEIKR
light: B2 light
notes: scFv at the heavy chain C-terminus; Fc mutation P331S with L234A and L235A; not shown: human IgG1 heavy chain constant region; mutation positions by EU index; GS linker

binding result [1]: binds
binding result [2]: binds
B12: anti-CD137 antibody A2-48 (antibody, V domains shown)
VH: QVQLQESGPGLVKPSETLSLTCTVSGGSISSYYWSWIRQPPGKGLEWIGYIYYSGYTNYNPSLKSRVNISVDTSQNQFSLKLNSLTAADTAVYYCARTHSYYYGMDVWGQGTTVTVSS
VL: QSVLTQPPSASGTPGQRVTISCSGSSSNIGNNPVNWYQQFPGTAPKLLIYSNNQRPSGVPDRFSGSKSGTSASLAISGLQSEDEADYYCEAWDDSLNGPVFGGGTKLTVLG
notes: as for B1

binding result [1]: binds
binding result [2]: binds
B13: anti-CD137 antibody A2-32 (antibody, V domains shown)
VH: B12 VH with S31G, Y56F, N68T, Q75K, N83S, L85V, A96T, T98D, Y101H, G104Y
VL: not shown
notes: as for B1

binding result [1]: binds
binding result [2]: binds
B14: anti-CD137 antibody 3-34 (antibody, V domains shown)
VH: QVQLQQSEAELVRPGASVKISCKAFGYTFTNHHINWVKQRPGQGLDWIGYINPYNDYTTFNRKFKDKATLTVHKSSSTAYMELSGLTSDDSAVYYCARTWGHWYFDLWGRGTVVTVSS
VL: EIVMTQSPATLSVSPGERATLSCRASQSVSSNLAWYQQKPGQAPRLLIYDSSTRATGIPARFSGSGSGTDFTLTISSLQSEDFAVYYCQQYNNWPPWTFGQGTKVEIKR
notes: Purified from a hybridoma derived from a VelocImmune mouse (human variable, mouse constant regions)
